We go through 60 sequences from the supplement of paper PMC7877785.

± gives the uncertainty stated by the source.

The data set can be described thus: self-splicing fitness, log relative to wild type (ln ratio); higher = more splicing; Tetrahymena group I intron in knt gene, E. coli kanamycin selection, DiMSum; sequences stand for … in CUCUCU…GGAGGGAAAAGUUAUCAGGCAUGCACCUGGUAGCUAGUCUUUAAACCAAUAGAUUGCAUCGGUUUAAAAGGCAAGACCGUCAAAUUGCGGGAAAGGGGUCAACAGCCGUUCAGUACCAAGUCUCAGGGGAAACUUUGAGAUGGCCUUGCAAAGGGUAUGGUAAUAAGCUGACGGACAUGGUCCUAACCACGCAGCCAAGUCCUAAGUCAACAGAUCUUCUGUUGAUAUGGAUGCAGUUCACAGACUAAAUGUCGGUCGGGGAAGAUGUAUUCUUCUCAUAAGAUAUAGUCGGACCUCUCCUUAAUGGGAGCUAGCGGAUGAAGUGAUGCAACACUGGAGCCGCUGGGAACUAAUUUGUAUGCGAAAGUAUAUUGAUUAGUUUUGGAGUACUCGUGGUCG
In a few lines: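 Fitness was computed with DiMSum as the error-weighted combination of replicate fold changes, kanamycin versus none, each normalised to wild type. The library randomised all eight intron nucleotides of the P1ex region, with the intron placed in the knt kanamycin-resistance gene on pET-22b(+) in E. coli BL21(DE3). Six replicate transformations were grown overnight at 37°C or 30°C on LB agar with or without 25 μg/mL kanamycin, plus 100 μg/mL carbenicillin, 50 μM IPTG and 0.2% rhamnose. Pooled colonies were amplicon-sequenced on an Illumina HiSeq 2500.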

In the case of UACCAGCAAUAUUACGAAGG, the “self-splicing fitness (ln)” value is, setting by setting: (30 °C) -2.22 ± 0.11; (37 °C) -0.865 ± 0.12.
Taken in the same sequence, the figures for AAUGAGCAAUAUUACGAUGA were -2.16 ± 0.12 and -1.77 ± 0.15.
Taken in the same sequence, the figures for CGUAAGCAAUAUUACGAUAU were -2.95 ± 0.14 and -2.77 ± 0.2.
For AGCUAGCAAUAUUACGCCGC, in that order: -2.36 ± 0.2 and -3.06 ± 0.47.
In the case of AGCUAGCAAUAUUACGUACU, the “self-splicing fitness (ln)” value runs as follows: (30 °C) -0.454 ± 0.095; (37 °C) -0.144 ± 0.12.
Taken in the same sequence, the figures for GAUAAGCAAUAUUACGGAGG were -1.43 ± 0.13 and -2.92 ± 0.29.
For UAGGAGCAAUAUUACGAAAA, in that order: -3.01 ± 0.45 and -1.65 ± 0.41.
On to AUUCAGCAAUAUUACGUCGA, for which the “self-splicing fitness (ln)” value by setting is: (30 °C) -0.991 ± 0.085; (37 °C) -0.503 ± 0.097.
Taken in the same sequence, the figures for UCGCAGCAAUAUUACGGAGA were -2.75 ± 0.13 and -1.02 ± 0.1.
Taken in the same sequence, the figures for ACUAAGCAAUAUUACGCCCG were -0.735 ± 0.14 and 0.678 ± 0.19.
On to CACAAGCAAUAUUACGGCUG, for which the “self-splicing fitness (ln)” value is -1.54 ± 0.072 (30 °C) and -0.213 ± 0.087 (37 °C).
In the case of UUGAAGCAAUAUUACGCGCU, the “self-splicing fitness (ln)” value by setting is: (30 °C) -1.72 ± 0.093; (37 °C) -1 ± 0.13.
Consider CUAUAGCAAUAUUACGCGCG, for which the “self-splicing fitness (ln)” value runs as follows: (30 °C) -0.981 ± 0.2; (37 °C) 0.458 ± 0.25.
For the sequence ACCUAGCAAUAUUACGUCCA, the “self-splicing fitness (ln)” value (30 °C) was -1.53 ± 0.098 and the “self-splicing fitness (ln)” value (37 °C) is -0.615 ± 0.094.
Taken in the same sequence, the figures for AACAAGCAAUAUUACGGCUA were -0.414 ± 0.067 and 0.274 ± 0.092.
Taken in the same sequence, the figures for CGACAGCAAUAUUACGGUUG were -3.3 ± 0.13 and -2.84 ± 0.18.
As to CUACAGCAAUAUUACGCUUG, the “self-splicing fitness (ln)” value reads like this: (30 °C) -2.37 ± 0.15; (37 °C) -2.26 ± 0.16.
Taken in the same sequence, the figures for UGUAAGCAAUAUUACGCAGC were -3.28 ± 0.35 and -1.44 ± 0.19.
As to UUCAAGCAAUAUUACGGUAU, the “self-splicing fitness (ln)” value is, setting by setting: (30 °C) -2.84 ± 0.11; (37 °C) -1.64 ± 0.11.
For CUUCAGCAAUAUUACGCACG, in that order: -1.02 ± 0.085 and -0.456 ± 0.13.
Regarding UAAUAGCAAUAUUACGAAUA, the “self-splicing fitness (ln)” value runs as follows: (30 °C) -2.51 ± 0.34; (37 °C) -1.28 ± 0.17.
In the case of CCUUAGCAAUAUUACGUACA, the “self-splicing fitness (ln)” value by setting is: (30 °C) -3.88 ± 0.42; (37 °C) -2.22 ± 0.3.
For GAUUAGCAAUAUUACGGCUG, in that order: -0.996 ± 0.067 and -0.513 ± 0.093.
Turning to GCCUAGCAAUAUUACGCCAA, the “self-splicing fitness (ln)” value reads like this: (30 °C) -2.38 ± 0.32; (37 °C) -3.18 ± 0.29.
Taken in the same sequence, the figures for UCUGAGCAAUAUUACGUUUU were -4.31 ± 0.29 and -3.26 ± 0.28.
For ACACAGCAAUAUUACGUUUC, in that order: -3.61 ± 0.12 and -2.28 ± 0.14.
For CAAGAGCAAUAUUACGGUCG, in that order: -0.431 ± 0.05 and -0.728 ± 0.065.
Consider GGCGAGCAAUAUUACGCUUG, for which the “self-splicing fitness (ln)” value (37 °C) was -2.71 ± 0.48.
Take CAUGAGCAAUAUUACGGCGU: the “self-splicing fitness (ln)” value (30 °C) is -3.61 ± 0.47 and the “self-splicing fitness (ln)” value (37 °C) was -1.97 ± 0.34.
Taken in the same sequence, the figures for UCGCAGCAAUAUUACGGCUU were -1.16 ± 0.08 and 0.404 ± 0.12.
Taken in the same sequence, the figures for UUUUAGCAAUAUUACGGCGA were -0.835 ± 0.17 and 0.114 ± 0.18.
Turning to AAGCAGCAAUAUUACGCAGU, the “self-splicing fitness (ln)” value reads like this: (30 °C) -3.36 ± 0.23; (37 °C) -1.52 ± 0.13.
On to ACUUAGCAAUAUUACGCCAG, for which the “self-splicing fitness (ln)” value is, setting by setting: (30 °C) -2.16 ± 0.15; (37 °C) -0.941 ± 0.17.
For CCCAAGCAAUAUUACGGGCU, in that order: -3.61 ± 0.18 and -2.31 ± 0.17.
Taken in the same sequence, the figures for UACGAGCAAUAUUACGAGUC were -2.81 ± 0.38 and -3.01 ± 0.43.
As for CAAAAGCAAUAUUACGGCCA, the “self-splicing fitness (ln)” value is, setting by setting: (30 °C) -1.68 ± 0.21; (37 °C) -0.283 ± 0.16.
For CCGAAGCAAUAUUACGACUA, the “self-splicing fitness (ln)” value by setting is: (30 °C) -2.1 ± 0.37; (37 °C) -2.65 ± 0.36.
Taken in the same sequence, the figures for AAACAGCAAUAUUACGGGAA were -2.41 ± 0.17 and -1.24 ± 0.12.
For the sequence AGCGAGCAAUAUUACGCGCG, the “self-splicing fitness (ln)” value is -4.04 ± 0.33 (30 °C) and -1.89 ± 0.25 (37 °C).
For CAUAAGCAAUAUUACGGGCU, under “37 °C”, the “self-splicing fitness (ln)” value was -2.73 ± 0.25.
In the case of CGAGAGCAAUAUUACGGGAG, the “self-splicing fitness (ln)” value is -2.83 ± 0.16 (30 °C) and -0.597 ± 0.16 (37 °C).
Taken in the same sequence, the figures for AUCAAGCAAUAUUACGCCAA were -1.99 ± 0.16 and -0.947 ± 0.13.
For CCACAGCAAUAUUACGGAAA, in that order: -3.47 ± 0.23 and -3.54 ± 0.29.
For CAACAGCAAUAUUACGGUUG, in that order: -3.26 ± 0.1 and -2.27 ± 0.12.
As for GGACAGCAAUAUUACGUAAA, the “self-splicing fitness (ln)” value by setting is: (30 °C) -0.529 ± 0.12; (37 °C) 0.362 ± 0.16.
On to CAUUAGCAAUAUUACGCUAA, for which the “self-splicing fitness (ln)” value (30 °C) is -2.7 ± 0.32.
Take UAGAAGCAAUAUUACGGAGA: the “self-splicing fitness (ln)” value (30 °C) is -3.26 ± 0.39 and the “self-splicing fitness (ln)” value (37 °C) was -2.46 ± 0.26.
Regarding UGCUAGCAAUAUUACGUCGG, the “self-splicing fitness (ln)” value runs as follows: (30 °C) -2.68 ± 0.25; (37 °C) -0.202 ± 0.23.
Taken in the same sequence, the figures for CUGUAGCAAUAUUACGUAGG were -1.03 ± 0.075 and -0.77 ± 0.12.
For UUAUAGCAAUAUUACGUAAU, in that order: -3.23 ± 0.31 and -2.11 ± 0.36.
Consider CACGAGCAAUAUUACGGGCG, for which the “self-splicing fitness (ln)” value is -0.98 ± 0.11 (30 °C) and -1.14 ± 0.15 (37 °C).
For CAUAAGCAAUAUUACGCUGA, in that order: -2.49 ± 0.21 and -2.62 ± 0.28.
As to CAAUAGCAAUAUUACGCUCA, the “self-splicing fitness (ln)” value by setting is: (30 °C) -0.892 ± 0.11; (37 °C) -1.73 ± 0.14.
As to CGUUAGCAAUAUUACGACUG, the “self-splicing fitness (ln)” value was -0.369 ± 0.12 (30 °C) and 0.327 ± 0.14 (37 °C).
For ACUCAGCAAUAUUACGGUUU, in that order: -0.62 ± 0.048 and -0.291 ± 0.057.
For the sequence UAAUAGCAAUAUUACGAUCG, the “self-splicing fitness (ln)” value turned out to be 0.121 ± 0.076 (30 °C) and 0.472 ± 0.099 (37 °C).
Taken in the same sequence, the figures for ACGAAGCAAUAUUACGGGAC were -4.36 ± 0.24 and -2.68 ± 0.18.
For CACUAGCAAUAUUACGCGAU, in that order: -2.63 ± 0.23 and -2.12 ± 0.28.
Taken in the same sequence, the figures for ACAGAGCAAUAUUACGCGUA were -3.21 ± 0.2 and -2.91 ± 0.23.
For the sequence AUAGAGCAAUAUUACGACAA, the “self-splicing fitness (ln)” value is, setting by setting: (30 °C) -1.04 ± 0.07; (37 °C) -0.291 ± 0.092.
